This is an account of results in patent US20250289866A1 (published 2025).

The target of the assay is T1, NDC80 (NDC80 CT antigen; peptide NDC80-330) peptide on HLA-A*02:01 (human).
T1 peptide: GLNEEIARV
Kind of assay: multimer staining.

B1: NDC80-330 specific TCR (TCR, V domains shown)
Valpha: EDQVTQSPEALRLQEGESSSLNCSYTVSGLRGLFWYRQDPGKGPEFLFTLYSAGEEKEKERLKATLTKKESFLHITAPKPEDSATYLCAVQAGSSASKIIFGSGTRLSIRP
Vbeta: DAGVTQSPTHLIKTRGQQVTLRCSPKSGHDTVSWYQQALGQGPQFIFQYYEEEERQRGNFPDRFSGHQFPNYSSELNVNALLLGDSALYLCASSLSGGIYEQYFGPGTRLTVT
On to B1, for which the binding result is on record as “recognises”.
